From the supplement of paper PMC11246515
± gives the standard deviation of the averaged measurements.

Experiment: total protein half-life in vivo (active degradation + dilution); higher = more stable protein
[1] = E. coli NCM3722 delta-clpP delta-lon delta-hslV, growth: N-lim chemostat, doubling time 6 h
[2] = E. coli NCM3722 delta-clpP, growth: N-lim chemostat, doubling time 6 h
[3] = E. coli NCM3722 delta-hslV, growth: N-lim chemostat, doubling time 6 h
[4] = E. coli NCM3722 delta-lon, growth: N-lim chemostat, doubling time 6 h
[5] = E. coli NCM3722 delta-smpB, growth: N-lim chemostat, doubling time 6 h
[6] = wild type E. coli NCM3722, growth: C-lim chemostat, doubling time 3 h
[7] = wild type E. coli NCM3722, growth: C-lim chemostat, doubling time 6 h
[8] = wild type E. coli NCM3722, growth: C-lim chemostat, doubling time 12 h
[9] = wild type E. coli NCM3722, growth: N-lim chemostat, doubling time 6 h
[10] = wild type E. coli NCM3722, growth: N-lim chemostat, doubling time 12 h
[11] = wild type E. coli NCM3722, growth: P-lim chemostat, doubling time 6 h
[12] = wild type E. coli NCM3722, growth: P-lim chemostat, doubling time 12 h

Which “total protein half-life in vivo” value [1] does the source give for “MQSVTPTSQYLKALNEGSHQPDDVQKEAVSRLEIIYQELINSTPPAPRTSGLMARVGKLWGKREDTKHTPVRGLYMWGGVGRGKTWLMDLFYQSLPGERKQRLHFHRFMLRVHEELTALQGQTDPLEIIADRFKAETDVLCFDEFFVSDITDAMLLGGLMKALFARGITLVATSNIPPDELYRNGLQRARFLPAIDAIKQHCDVMNVDAGVDYRLRTLTQAHLWLSPLHDETRAQMDKLWLALAGGKRENSPTLEINHRPLATMGVENQTLAVSFTTLCVDARSQHDYIALSRLFHTVMLFDVPVMTRLMESEARRFIALVDEFYERHVKLVVSAEVPLYEIYQGDRLKFEFQRCLSRLQEMQSEEYLKREHLAG” here?
Its value is 3.66 ± 0.54 h.

What about the “total protein half-life in vivo” value [2] of the same sequence?
The value was 2.97 ± 0.16 h.

And the “total protein half-life in vivo” value [3]?
The value was 3.35 ± 0.15 h.

And the “total protein half-life in vivo” value [4]?
Its value is 2.58 h.

What about the “total protein half-life in vivo” value [5] of the same sequence?
Its value is 3.103 ± 0.03 h.

And the “total protein half-life in vivo” value [6]?
The value was 2.72 ± 0.05 h.

What about the “total protein half-life in vivo” value [7] of the same sequence?
Its value is 5.71 ± 0.58 h.

And the “total protein half-life in vivo” value [8]?
The value was 9.73 ± 1.3 h.

What about the “total protein half-life in vivo” value [9] of the same sequence?
The value was 3.4 ± 0.15 h.

What about the “total protein half-life in vivo” value [10] of the same sequence?
Its value is 5.55 ± 0.15 h.

What about the “total protein half-life in vivo” value [11] of the same sequence?
The value was 5.25 ± 0.66 h.

What about the “total protein half-life in vivo” value [12] of the same sequence?
Its value is 9.34 ± 1.1 h.

Which “total protein half-life in vivo” value [3] does the source give for “MNITATVLLAFGMSMDAFAASIGKGATLHKPKFSEALRTGLIFGAVETLTPLIGWGMGMLASRFVLEWNHWIAFVLLIFLGGRMIIEGFRGADDEDEEPRRRHGFWLLVTTAIATSLDAMAVGVGLAFLQVNIIATALAIGCATLIMSTLGMMVGRFIGSIIGKKAEILGGLVLIGIGVQILWTHFHG” here?
Its value is 5.5 h.

What about the “total protein half-life in vivo” value [12] of the same sequence?
The value was 8.23 h.

Which “total protein half-life in vivo” value [1] does the source give for “MTDLHTDVERYLRYLSVERQLSPITLLNYQRQLEAIINFASENGLQSWQQCDVTMVRNFAVRSRRKGLGAASLALRLSALRSFFDWLVSQNELKANPAKGVSAPKAPRHLPKNIDVDDMNRLLDIDINDPLAVRDRAMLEVMYGAGLRLSELVGLDIKHLDLESGEVWVMGKGSKERRLPIGRNAVAWIEHWLDLRDLFGSEDDALFLSKLGKRISARNVQKRFAEWGIKQGLNNHVHPHKLRHSFATHMLESSGDLRGVQELLGHANLSTTQIYTHLDFQHLASVYDAAHPRAKRGK [P0A8P6]” here?
The value was 4.56 ± 0.07 h.

And the “total protein half-life in vivo” value [2]?
Its value is 2.2684 ± 0.0015 h.

And the “total protein half-life in vivo” value [3]?
Its value is 1.38 h.

And the “total protein half-life in vivo” value [4]?
The value was 2.36 ± 0.25 h.

And the “total protein half-life in vivo” value [5]?
The value was 1.64 ± 0.28 h.

What about the “total protein half-life in vivo” value [6] of the same sequence?
Its value is 1.59 ± 0.34 h.

What about the “total protein half-life in vivo” value [7] of the same sequence?
Its value is 2.67 h.

What about the “total protein half-life in vivo” value [9] of the same sequence?
Its value is 1.81 h.

And the “total protein half-life in vivo” value [10]?
The value was 2.08 ± 0.12 h.

And the “total protein half-life in vivo” value [11]?
The value was 1.87 ± 0.3 h.

And the “total protein half-life in vivo” value [12]?
Its value is 3.1 ± 0.58 h.

Which “total protein half-life in vivo” value [2] does the source give for “MTQTLLAIENLSVGFRHQQTVRTVVNDVSLQIEAGETLALVGESGSGKSVTALSILRLLPSPPVEYLSGDIRFHGESLLHASDQTLRGVRGNKIAMIFQEPMVSLNPLHTLEKQLYEVLSLHRGMRREAARGEILNCLDRVGIRQAAKRLTDYPHQLSGGERQRVMIAMALLTRPELLIADEPTTALDVSVQAQILQLLRELQGELNMGMLFITHNLSIVRKLAHRVAVMQNGRCVEQNYAATLFASPTHPYTQKLLNSEPSGDPVPLPEPASTLLDVEQLQVAFPIRKGILKRIVDHNVVVKNISFTLRAGETLGLVGESGSGKSTTGLALLRLINSQGSIIFDGQPLQNLNRRQLLPIRHRIQVVFQDPNSSLNPRLNVLQIIEEGLRVHQPTLSAAQREQQVIAVMHEVGLDPETRHRYPAEFSGGQRQRIAIARALILKPSLIILDEPTSSLDKTVQAQILTLLKSLQQKHQLAYLFISHDLHVVRALCHQVIILRQGEVVEQGPCARVFATPQQEYTRQLLALS” here?
The value was 5.76 ± 0.31 h.

What about the “total protein half-life in vivo” value [3] of the same sequence?
The value was 6.42 ± 0.031 h.

What about the “total protein half-life in vivo” value [4] of the same sequence?
Its value is 4.55 ± 0.74 h.

And the “total protein half-life in vivo” value [5]?
Its value is 5.67 ± 0.15 h.

And the “total protein half-life in vivo” value [6]?
The value was 3 ± 0.32 h.

What about the “total protein half-life in vivo” value [7] of the same sequence?
The value was 5.64 ± 0.14 h.

What about the “total protein half-life in vivo” value [8] of the same sequence?
Its value is 13.1 ± 0.73 h.

What about the “total protein half-life in vivo” value [9] of the same sequence?
Its value is 5.87 ± 0.26 h.

What about the “total protein half-life in vivo” value [10] of the same sequence?
Its value is 11.6 h.

And the “total protein half-life in vivo” value [11]?
The value was 6.17 ± 0.13 h.

What about the “total protein half-life in vivo” value [12] of the same sequence?
The value was 11.9 ± 0.82 h.

With “MERFLENAMYASRWLLAPVYFGLSLALVALALKFFQEIIHVLPNIFSMAESDLILVLLSLVDMTLVGGLLVMVMFSGYENFVSQLDISENKEKLNWLGKMDATSLKNKVAASIVAISSIHLLRVFMDAKNVPDNKLMWYVIIHLTFVLSAFVMGYLDRLTRHNH” as the sequence, how does the “total protein half-life in vivo” value [4] read?
Its value is 6.103 ± 0.048 h.

What about the “total protein half-life in vivo” value [5] of the same sequence?
Its value is 5.64 ± 0.26 h.

What about the “total protein half-life in vivo” value [6] of the same sequence?
The value was 2.92 ± 0.05 h.

And the “total protein half-life in vivo” value [8]?
The value was 11.8 ± 1.8 h.

And the “total protein half-life in vivo” value [9]?
The value was 4.99 ± 0.67 h.

What about the “total protein half-life in vivo” value [11] of the same sequence?
The value was 5.88 h.

What about the “total protein half-life in vivo” value [12] of the same sequence?
The value was 10.6 h.

Which results are given for “MAKSVPAIFLDRDGTINVDHGYVHEIDNFEFIDGVIDAMRELKKMGFALVVVTNQSGIARGKFTEAQFETLTEWMDWSLADRDVDLDGIYYCPHHPQGSVEEFRQVCDCRKPHPGMLLSARDYLHIDMAASYMVGDKLEDMQAAVAANVGTKVLVRTGKPITPEAENAADWVLNSLADLPQAIKKQQKPAQ”?
total protein half-life in vivo [1]: 5.54 ± 0.29 h; total protein half-life in vivo [2]: 5.269 ± 0.022 h; total protein half-life in vivo [3]: 4.97 ± 0.51 h; total protein half-life in vivo [4]: 5.62 ± 0.25 h; total protein half-life in vivo [5]: 4.95 ± 0.083 h; total protein half-life in vivo [6]: 2.54 ± 0.091 h; total protein half-life in vivo [7]: 4.782 ± 0.0071 h; total protein half-life in vivo [8]: 13.4 ± 3.2 h; total protein half-life in vivo [9]: 5.05 ± 0.25 h; total protein half-life in vivo [10]: 8.7 ± 0.32 h; total protein half-life in vivo [11]: 5.49 ± 0.68 h; total protein half-life in vivo [12]: 11.4 ± 1.5 h

Which “total protein half-life in vivo” value [1] does the source give for “MKKAGLLFLVMIVIAVVAAGIGYWKLTGEESDTLRKIVLEECLPNQQQNQNPSPCAEVKPNAGYVVLKDLNGPLQYLLMPTYRINGTESPLLTDPSTPNFFWLAWQARDFMSKKYGQPVPDRAVSLAINSRTGRTQNHFHIHISCIRPDVRKQLDNNLANISSRWLPLPGGLRGHEYLARRVTESELVQRSPFMMLAEEVPEAREHMGRYGLAMVRQSDNSFVLLATQRNLLTLNRASAEEIQDHQCEILR” here?
Its value is 6.38 ± 0.31 h.

And the “total protein half-life in vivo” value [2]?
Its value is 6.726 ± 0.048 h.

What about the “total protein half-life in vivo” value [3] of the same sequence?
The value was 6.364 ± 0.022 h.

And the “total protein half-life in vivo” value [5]?
The value was 6.59 ± 0.21 h.

What about the “total protein half-life in vivo” value [6] of the same sequence?
Its value is 3.17 ± 0.07 h.

And the “total protein half-life in vivo” value [7]?
The value was 7.09 ± 1 h.

What about the “total protein half-life in vivo” value [8] of the same sequence?
Its value is 12.8 ± 0.32 h.

And the “total protein half-life in vivo” value [9]?
Its value is 6.45 ± 0.28 h.

What about the “total protein half-life in vivo” value [11] of the same sequence?
The value was 6.13 ± 0.2 h.

What about the “total protein half-life in vivo” value [12] of the same sequence?
Its value is 13.6 ± 0.51 h.
